Each block holds one binder with its values, some of them ahead of it.
Legend:
Test in all cases: holdup assay
Parameters in all cases: key: below the threshold = too weak to quantify, mostly under pKd 3.1 to 4
Details in all cases: plain residues with an end cap or a label only (N-terminal biotin on a linker: ado-ado)
CARD11, Q9BXL7 = target: T1, CARD11, Q9BXL7
T1 sequence (Q9BXL7 662-765, limits assumed, looked up): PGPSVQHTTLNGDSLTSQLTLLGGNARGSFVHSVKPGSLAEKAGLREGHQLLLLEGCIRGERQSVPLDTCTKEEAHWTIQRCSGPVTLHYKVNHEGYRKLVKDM

DLG4_3, P78352 = target: DLG4_3, P78352
Sequence of DLG4_3, P78352 (P78352 306-403): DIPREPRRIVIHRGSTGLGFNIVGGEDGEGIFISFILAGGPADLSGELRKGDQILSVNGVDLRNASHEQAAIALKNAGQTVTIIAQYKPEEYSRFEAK

DLG5_1, Q8TDM6 = target: DLG5_1, Q8TDM6
Sequence of DLG5_1, Q8TDM6 (Q8TDM6 617-713): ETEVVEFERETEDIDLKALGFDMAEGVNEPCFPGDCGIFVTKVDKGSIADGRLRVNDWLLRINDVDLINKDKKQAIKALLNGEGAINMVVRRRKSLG

GOPC, Q9HD26 = target: GOPC, Q9HD26
GRID2IP_2, A4D2P6 = target: GRID2IP_2, A4D2P6
Sequence of GRID2IP_2, A4D2P6 (A4D2P6 272-370): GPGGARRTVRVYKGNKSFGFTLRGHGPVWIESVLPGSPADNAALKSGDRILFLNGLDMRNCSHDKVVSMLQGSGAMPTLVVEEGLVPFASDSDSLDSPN

GRIP2_5, Q9C0E4 = target: GRIP2_5, Q9C0E4
Sequence of GRIP2_5, Q9C0E4 (Q9C0E4 544-642): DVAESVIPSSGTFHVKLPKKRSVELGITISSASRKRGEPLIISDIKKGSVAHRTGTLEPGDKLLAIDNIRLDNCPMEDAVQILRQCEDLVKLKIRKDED

GRIP2_7, Q9C0E4 = target: GRIP2_7, Q9C0E4
Sequence of GRIP2_7, Q9C0E4 (Q9C0E4 934-1023): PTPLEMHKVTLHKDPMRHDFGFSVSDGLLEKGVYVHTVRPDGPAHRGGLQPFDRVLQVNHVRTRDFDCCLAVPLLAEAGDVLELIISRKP

HTRA3, P83110 = target: T2, HTRA3, P83110
T2 sequence (P83110 354-453, limits assumed, looked up): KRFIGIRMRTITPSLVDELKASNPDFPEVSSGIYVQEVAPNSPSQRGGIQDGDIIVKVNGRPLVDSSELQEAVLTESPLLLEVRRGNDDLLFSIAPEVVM

IL16_3, Q14005 = target: IL16_3, Q14005
Sequence of IL16_3, Q14005 (Q14005 1107-1207): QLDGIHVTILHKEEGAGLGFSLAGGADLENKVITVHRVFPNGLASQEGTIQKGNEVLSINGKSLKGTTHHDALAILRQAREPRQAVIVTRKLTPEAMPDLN

Inadl_10, Q8NI35 = target: Inadl_10, Q8NI35
Sequence of Inadl_10, Q8NI35 (Q8NI35 1673-1763): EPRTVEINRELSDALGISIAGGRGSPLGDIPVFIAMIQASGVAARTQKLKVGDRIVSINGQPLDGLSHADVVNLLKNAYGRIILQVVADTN

Inadl_5, Q8NI35 = target: Inadl_5, Q8NI35
Sequence of Inadl_5, Q8NI35 (Q8NI35 673-780): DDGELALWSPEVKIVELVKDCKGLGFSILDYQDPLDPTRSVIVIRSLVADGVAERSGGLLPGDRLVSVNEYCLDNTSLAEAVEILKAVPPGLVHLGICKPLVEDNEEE

LAP2, Q96RT1 = target: LAP2, Q96RT1
Sequence of LAP2, Q96RT1 (Q96RT1 other isoform, or with tags, fused parts or gaps): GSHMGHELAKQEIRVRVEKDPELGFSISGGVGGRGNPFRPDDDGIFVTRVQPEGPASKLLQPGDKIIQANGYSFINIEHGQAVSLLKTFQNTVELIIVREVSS

LDB3, O75112 = target: LDB3, O75112
Sequence of LDB3, O75112 (O75112 1-94): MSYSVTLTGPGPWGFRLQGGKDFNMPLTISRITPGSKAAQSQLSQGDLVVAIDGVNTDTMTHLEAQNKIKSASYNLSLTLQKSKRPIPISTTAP

LIN7B, Q9HAP6 = target: T3, LIN7B, Q9HAP6
T3 sequence (Q9HAP6 88-185, limits assumed, looked up): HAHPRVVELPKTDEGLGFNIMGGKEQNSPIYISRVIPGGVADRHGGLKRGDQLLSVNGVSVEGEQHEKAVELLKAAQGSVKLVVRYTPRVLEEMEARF

LNX2_2, Q8N448 = target: T4, LNX2_2, Q8N448
T4 sequence (Q8N448 334-432, limits assumed, looked up): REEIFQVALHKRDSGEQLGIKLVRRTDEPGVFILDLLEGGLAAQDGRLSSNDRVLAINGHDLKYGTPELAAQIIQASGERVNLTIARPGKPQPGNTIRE

LRRC7, Q96NW7 = target: T5, LRRC7, Q96NW7
T5 sequence (Q96NW7 1440-1537, limits assumed, looked up): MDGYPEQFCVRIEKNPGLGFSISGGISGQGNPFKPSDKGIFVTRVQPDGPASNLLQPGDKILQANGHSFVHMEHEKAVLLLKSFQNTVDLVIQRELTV

MAGI2_4, Q86UL8 = target: MAGI2_4, Q86UL8
Sequence of MAGI2_4, Q86UL8 (Q86UL8 772-865): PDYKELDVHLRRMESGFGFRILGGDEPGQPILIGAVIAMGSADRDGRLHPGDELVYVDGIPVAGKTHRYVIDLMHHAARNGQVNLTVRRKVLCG

NHERF3_1, Q5T2W1 = target: T6, NHERF3_1, Q5T2W1
T6 sequence (Q5T2W1 4-100, limits assumed, looked up): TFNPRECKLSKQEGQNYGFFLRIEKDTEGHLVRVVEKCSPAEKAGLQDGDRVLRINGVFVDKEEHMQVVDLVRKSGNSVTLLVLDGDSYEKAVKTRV

NHERF3_3, Q5T2W1 = target: T7, NHERF3_3, Q5T2W1
T7 sequence (Q5T2W1 238-333, limits assumed, looked up): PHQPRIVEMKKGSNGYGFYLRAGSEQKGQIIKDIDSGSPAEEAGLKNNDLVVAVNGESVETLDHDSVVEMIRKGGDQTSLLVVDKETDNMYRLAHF

NHERF4_1, Q86UT5-2 = target: NHERF4_1, Q86UT5-2
Sequence of NHERF4_1, Q86UT5-2 (Q86UT5 other isoform, or with tags, fused parts or gaps): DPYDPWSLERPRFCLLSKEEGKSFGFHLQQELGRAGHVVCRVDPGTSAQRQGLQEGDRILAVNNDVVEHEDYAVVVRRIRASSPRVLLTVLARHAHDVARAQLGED

NHERF4_2, Q86UT5 = target: NHERF4_2, Q86UT5
Sequence of NHERF4_2, Q86UT5 (Q86UT5 220-308): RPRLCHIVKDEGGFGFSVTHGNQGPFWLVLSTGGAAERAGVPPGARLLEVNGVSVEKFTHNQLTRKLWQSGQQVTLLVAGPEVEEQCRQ

PCLO, Q9Y6V0 = target: T8, PCLO, Q9Y6V0
T8 sequence (Q9Y6V0 4491-4600, limits assumed, looked up): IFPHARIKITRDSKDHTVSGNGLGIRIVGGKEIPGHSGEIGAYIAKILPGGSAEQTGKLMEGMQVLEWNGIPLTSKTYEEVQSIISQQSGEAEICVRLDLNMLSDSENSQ

PICK1, Q9NRD5 = target: PICK1, Q9NRD5
Sequence of PICK1, Q9NRD5 (Q9NRD5 17-115): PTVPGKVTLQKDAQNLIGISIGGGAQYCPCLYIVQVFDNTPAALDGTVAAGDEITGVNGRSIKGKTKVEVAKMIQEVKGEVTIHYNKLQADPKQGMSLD

SCRIB_2, Q14160 = target: SCRIB_2, Q14160
Sequence of SCRIB_2, Q14160 (Q14160 857-960): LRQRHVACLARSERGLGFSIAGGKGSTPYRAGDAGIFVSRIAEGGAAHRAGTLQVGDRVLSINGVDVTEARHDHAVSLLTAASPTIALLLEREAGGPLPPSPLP

SCRIB_3, Q14160 = target: SCRIB_3, Q14160
Sequence of SCRIB_3, Q14160 (Q14160 999-1103): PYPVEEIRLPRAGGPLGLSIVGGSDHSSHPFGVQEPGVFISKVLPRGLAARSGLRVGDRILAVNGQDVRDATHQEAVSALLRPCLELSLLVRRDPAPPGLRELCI

SNTG1, Q9NSN8 = target: T9, SNTG1, Q9NSN8
T9 sequence (Q9NSN8 52-150, limits assumed, looked up): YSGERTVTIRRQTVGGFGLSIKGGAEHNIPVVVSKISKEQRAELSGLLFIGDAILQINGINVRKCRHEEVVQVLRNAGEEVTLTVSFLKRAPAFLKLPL

SNX27, Q96L92 = target: SNX27, Q96L92
TJP2_1, Q9UDY2 = target: TJP2_1, Q9UDY2
Sequence of TJP2_1, Q9UDY2 (Q9UDY2 24-128): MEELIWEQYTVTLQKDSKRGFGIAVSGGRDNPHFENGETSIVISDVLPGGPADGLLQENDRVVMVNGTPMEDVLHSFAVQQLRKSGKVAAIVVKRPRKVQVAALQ

- pKd (CARD11, Q9BXL7): below the threshold
- pKd (DLG4_3, P78352): below the threshold
- pKd (DLG5_1, Q8TDM6): below the threshold
- pKd (GOPC, Q9HD26): below the threshold
- pKd (GRID2IP_2, A4D2P6): below the threshold
- pKd (GRIP2_5, Q9C0E4): below the threshold
- pKd (GRIP2_7, Q9C0E4): below the threshold
- pKd (HTRA3, P83110): 3.6
- pKd (IL16_3, Q14005): below the threshold
- pKd (Inadl_10, Q8NI35): below the threshold
- pKd (Inadl_5, Q8NI35): below the threshold
- pKd (LAP2, Q96RT1): below the threshold
- pKd (LDB3, O75112): below the threshold
- pKd (LIN7B, Q9HAP6): 3.53
- pKd (LNX2_2, Q8N448): 3.83
- pKd (LRRC7, Q96NW7): below the threshold
- pKd (MAGI2_4, Q86UL8): 3.67
- pKd (NHERF3_1, Q5T2W1): below the threshold
- pKd (NHERF3_3, Q5T2W1): below the threshold
- pKd (NHERF4_1, Q86UT5-2): below the threshold
- pKd (NHERF4_2, Q86UT5): below the threshold
- pKd (PCLO, Q9Y6V0): below the threshold
- pKd (PICK1, Q9NRD5): below the threshold
- pKd (SCRIB_2, Q14160): below the threshold
- pKd (SCRIB_3, Q14160): 4.29
- pKd (SNTG1, Q9NSN8): 3.64
- pKd (SNX27, Q96L92): below the threshold
- pKd (TJP2_1, Q9UDY2): below the threshold
B1: PTTG2, Q9NZH5 (peptide)
chain: LPAVCYDIDI

- pKd (CARD11, Q9BXL7): below the threshold
- pKd (DLG4_3, P78352): below the threshold
- pKd (DLG5_1, Q8TDM6): below the threshold
- pKd (GOPC, Q9HD26): below the threshold
- pKd (GRID2IP_2, A4D2P6): below the threshold
- pKd (GRIP2_5, Q9C0E4): below the threshold
- pKd (GRIP2_7, Q9C0E4): below the threshold
- pKd (HTRA3, P83110): below the threshold
- pKd (IL16_3, Q14005): below the threshold
- pKd (Inadl_10, Q8NI35): below the threshold
- pKd (Inadl_5, Q8NI35): below the threshold
- pKd (LAP2, Q96RT1): 3.9
- pKd (LDB3, O75112): 5.2
- pKd (LIN7B, Q9HAP6): 3.66
- pKd (LNX2_2, Q8N448): below the threshold
- pKd (LRRC7, Q96NW7): below the threshold
- pKd (MAGI2_4, Q86UL8): below the threshold
- pKd (NHERF3_1, Q5T2W1): 4.44
- pKd (NHERF3_3, Q5T2W1): below the threshold
- pKd (NHERF4_1, Q86UT5-2): 4.41
- pKd (NHERF4_2, Q86UT5): below the threshold
- pKd (PCLO, Q9Y6V0): below the threshold
- pKd (PICK1, Q9NRD5): below the threshold
- pKd (SCRIB_2, Q14160): below the threshold
- pKd (SCRIB_3, Q14160): below the threshold
- pKd (SNTG1, Q9NSN8): below the threshold
- pKd (SNX27, Q96L92): below the threshold
- pKd (TJP2_1, Q9UDY2): below the threshold
B2: MYOT, Q9UBF9 (peptide)
chain: QSGLYESEEL
